Experimental findings from patent publication US20240301067A1 (WUXI BIOLOGICS IRELAND, published 2024) are described below.

For assay [1], the target named is T1, Human PD-1 on CHO-S cells (human, UniProt Q15116 25-288).
T1 construct: whole, on cells; also called CHO-S.hPro1.C6; WBP305.CHO-S.hPro1.C6
Kind of assay: FACS competition on CHO-S.hPro1.C6 cells; competitor hProL1.ECD.mFc 5 µg/mL. As to the method:
The human PD-1 transfected CHO-S.hPro1.C6 cells were transferred into 96-well U-bottom plates at a density of 2×10⁵ cells/well. Various concentrations of antibodies (4-fold serially diluted from 133.3 nM to 0.008 nM) and constant concentration of mouse Fc tagged PD-L1 ECD protein (hProL1.ECD.mFc) (5 μg/mL) were pre-mixed and incubated with cells at 4° C. for 1 hour. After washing with 1×PBS/1% BSA, the secondary antibody PE-labeled goat anti-mouse IgG was applied and incubated with cells at 4° C. for 1 hour. The cells were then washed and resuspended in 1×PBS/1% BSA. MFI of the cells was measured by a flow cytometer and analyzed by FlowJo (version 7.6.1).

Assay [2] deals with T2, Cynomolgus monkey PD-1 on transiently transfected 293F cells (cynomolgus monkey).
T2 construct: whole, on cells; also called cell surface cynomolgus PD-1; cyno PD-1
Put plainly: FACS on cyno PD-1 transfected 293F cells, experiment 1. As to the method:
(§1) Cynomolgus monkey PD-1 (GenBank Accession No. NP_001271065.1) transient transfected 293F cells (2×10⁵ cells/well) were incubated with various concentrations of anti-PD-1 antibodies (3-fold serially diluted from 133.4 nM to 0.008 nM) at 4° C. for 1 hour. After washing with 1×PBS/1% BSA, the secondary antibody PE-labeled goat anti-human IgG was applied and incubated with cells at 4° C. for 1 hour. Anti-human PD-1 antibodies BMK1 and BMK3 were used as positive control. Human IgG4 isotype antibody was used as negative control. The cells were then washed and re-suspended in 1×PBS/1% BSA. MFI of the cells was measured by a flow cytometer and analyzed by FlowJo (version 7.6.1).

The target of assay [3] is T3, Cynomolgus PD-1 extracellular domain, hFc tag (cynomolgus, UniProt B0LAJ3 25-170).
T3 construct: Bought; also called cynoPro1.ECD.hFc; cyno PD-1 ECD protein
Kind of assay: ELISA competition on coated cynoPro1.ECD.hFc; competitor cynoProL1.ECD.hFc.biotin 2.5 µg/mL; experiment 1. The method, then: (§2) Plates were pre-coated with 1 μg/mL, 100 μL per well of cyno PD-1 ECD protein (cynoPro1.ECD.hFc) at 4° C. overnight. After 1-hour blocking using 200 μL of 1×PBS/2% BSA, constant concentration of biotinylated cyno PD-L1 (cynoProL1.ECD.hFc.biotin) (2.5 μg/mL) and various concentrations of testing antibody, positive and negative control (3-fold serially diluted from 133.4 nM to 0.007 nM) were pre-mixed and added to the plates. The plates were incubated at ambient temperature for 1 hour. The binding of ligand to the immobilized protein was detected by streptavidin-HRP. The color was developed by dispensing 100 μL of TMB substrate, and then stopped by 100 μL of 2M HCl. The absorbance was read at 450 nm and 540 nm using a microplate spectrophotometer.

Assay [4] has as its target T4, Human PD-1 extracellular domain, mFc tag (human, UniProt Q15116 25-170).
T4 construct: extracellular domain; also called hPro1.ECD.mFc; hPD-1.ECD.mFc; not shown: mouse Fc tag at C-terminus
Kind of assay: ELISA competition on coated hPro1.ECD.mFc; competitor hPro1L2.ECD.His; experiment 2. As to the method:
Plates were pre-coated with 1 μg/mL, 100 μL per well of human PD-1 ECD (hPro1.ECD.mFc) at 4° C. overnight. After 1-hour blocking using 200 μL of 1×PBS/2% BSA, constant concentration of his tagged human PD-L2 ECD (hPro1L2.ECD.His) and various concentrations of testing antibodies (3-fold serially diluted from 66.7 nM to 0.003 nM) were pre-mixed and added to the plates. After 2-hour incubation at ambient temperature, the binding of the ligand to the immobilized protein was detected by HRP-labeled goat anti-His antibody. The color was developed by dispensing 100 μL of TMB substrate, and then stopped by 100 μL of 2N HCl. The absorbance was read at 450 nm and 540 nm using a microplate spectrophotometer.

Assay [5] addresses T1, Human PD-1 on CHO-S cells. Kind of assay: FACS on CHO-S.hPro1.C6 cells, antibody kept 0 to 14 days in human serum at 37 C, PE goat anti-human IgG. As to the method: The human PD-1 transfected cell line WBP305-CHO-S.hPro1.C6 cells (1×10⁵ cells/well) were incubated with various concentrations of serum treated W3056 anti-PD-1 antibodies (3-fold serially diluted from 129.9 nM to 0.0007 nM) at 4° C. for 1 hour. After washing with 1×PBS/1% BSA, the secondary antibody PE-labeled goat anti-human IgG was applied and incubated with cells at 4° C. for 1 hour. Human IgG4 isotype antibody was used as negative control. The cells were then washed and resuspended in 1×PBS/1% BSA. MFI of the cells was measured by a flow cytometer (BD) and analyzed by FlowJo.

The target of assay [6] is T2, Cynomolgus monkey PD-1 on transiently …. Kind of assay: FACS on cyno PD-1 transfected 293F cells, experiment 2. The method, then: as §1
For assay [7], the target named is T1, Human PD-1 on CHO-S cells. Kind of assay: FACS competition with biotinylated BMK3 (1 ug/mL) on CHO-S.hPro1.C6 cells, SA-PE. As to the method:
The human PD-1 transfected cells CHO-S.hPro1.C6 were transferred into 96-well U-bottom plates at a density of 1˜2×10⁵ cells/well. Serial dilutions of testing antibodies (4-fold serially diluted from 133.3 nM to 0.008 nM) were mixed with constant concentration of biotinylated BMK1 (1 μg/mL) or biotinylated BMK3 (1 μg/mL), respectively. Then the mixture was added to the cells in 96-well plates and incubated at 4° C. for 1 hour. After washing with 1×PBS/1% BSA, the secondary antibody SA-PE was applied and incubated with cells at 4° C. for 1 hour. The cells were then washed and resuspended in 1×PBS/1% BSA. MFI of the cells was measured by a flow cytometer and analyzed by FlowJo. Data were shown FIG. 9.

Assay [8] has as its target T3, Cynomolgus PD-1 extracellular domain, …. Put plainly: ELISA competition on coated cynoPro1.ECD.hFc; competitor cynoProL1.ECD.hFc.biotin 2.5 µg/mL; experiment 2. The method, then: as §2
(In general: ELISA stands for enzyme-linked immunosorbent assay.)

Where a chain is given by its changes, count along the chain named. Names and notes keep the numbering of the source.

T1 sequence (Q15116 25-288): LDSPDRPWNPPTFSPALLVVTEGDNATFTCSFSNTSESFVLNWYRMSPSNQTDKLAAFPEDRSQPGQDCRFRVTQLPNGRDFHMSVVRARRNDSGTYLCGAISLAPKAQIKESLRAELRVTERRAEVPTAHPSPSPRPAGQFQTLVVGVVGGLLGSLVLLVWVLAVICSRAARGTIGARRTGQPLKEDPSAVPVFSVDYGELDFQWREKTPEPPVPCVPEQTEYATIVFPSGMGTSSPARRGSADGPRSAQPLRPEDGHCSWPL
T3 sequence (B0LAJ3 entry or part of it limits assumed): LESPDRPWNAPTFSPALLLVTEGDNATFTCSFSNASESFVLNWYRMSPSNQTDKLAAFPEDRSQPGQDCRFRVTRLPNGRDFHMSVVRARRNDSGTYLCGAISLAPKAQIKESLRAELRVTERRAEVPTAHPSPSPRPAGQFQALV
T4 sequence (Q15116 25-170): as the sequence (B0LAJ3 entry or part of it limits assumed) above, with E2D, A10P, L19V, A35T, R75Q, A144T counted along it

B1: W3056-AP17R1-2H2-FC(IgG4.SP) (Fc fusion)
chain: QVQLVESGGGLVQPGGSLRLSCAASDSIDSLVNMGWYRQAPGKQRELVALIANYITHYADFVKGRFTISRDAAKNTVNLQMSSLKPEDTAVYYCYARNIIVDYWGQGTQVTVSS
notes: VHH fused to Fc of human IgG4 S228P; also called W3056 lead parental antibody (VHH-Fc(hIgG4) fusion); not shown: Fc of human IgG4 (hIgG4.S228P)
For B1, the IC50 in assay [1] stood at 1 nM; in assay [3], 1.3 nM. The molecule also gave an EC50 in assay [2] of 0.98 nM.

B2: W3056-AP17R1-2H2-Z1-R1-14A1-FC(IgG4.SP) (Fc fusion)
chain: B1 chain with L11V, N53T, A72N, A73S, V77L, N78Y, S82N, K85R, P86A, Q109L
notes: also called W3056 lead antibody (VHH-Fc(hIgG4) fusion); not shown: Fc of human IgG4 (hIgG4.S228P)
With B2, the IC50 was determined as 0.886 nM in assay [4], 0.655 nM in assay [1] and 0.853 nM in assay [8]. Also, the half-maximal effective concentration (EC50 (read off the curve)) in assay [5] lay within 1 to 2 nM. The molecule also had a concentration giving a half-maximal response (EC50) in assay [6] of 1.98 nM. Also, the “IC50 (read off the curve)” value in assay [7] was roughly 20 nM.

The term IC50 denotes the point on the concentration scale where inhibition reaches its midpoint. Broadly, the EC50 is the concentration that produces a half-maximal response. One may read the EC50 (read off the curve) as the concentration needed to bring the measured effect to its halfway point.
